Here are results for two molecules from PMC8079461, “ApoA5 lowers triglyceride levels via suppression of ANGPTL3/8-mediated LPL inhibition” (Journal of Lipid Research, 2021).

“And” between values parts separate entries of the source, which are not always exact repeats. Equal entries are not always repeated.

Test [1] addresses ANGPTL8 in human serum (human (endogenous in serum)) (UniProt Q6UXH0). In words: affinity purification with mass spectrometry; immunoprecipitation with the anti-ANGPTL3/8 antibody from 1 ml pooled human serum (three pools); on-bead Trypsin/Lys-C digest; LC-MRM with 0.25 pmole stable isotope-labeled peptides, two peptides a protein.
Test [2] deals with T1, ANGPTL3/8 complex containing a FLAG-tag sequence at the C terminus of ANGPTL3 (recombinant, human) (human, UniProt Q9Y5C1 17-460; Q6UXH0 22-198).
T1 sequence (looked up) 1: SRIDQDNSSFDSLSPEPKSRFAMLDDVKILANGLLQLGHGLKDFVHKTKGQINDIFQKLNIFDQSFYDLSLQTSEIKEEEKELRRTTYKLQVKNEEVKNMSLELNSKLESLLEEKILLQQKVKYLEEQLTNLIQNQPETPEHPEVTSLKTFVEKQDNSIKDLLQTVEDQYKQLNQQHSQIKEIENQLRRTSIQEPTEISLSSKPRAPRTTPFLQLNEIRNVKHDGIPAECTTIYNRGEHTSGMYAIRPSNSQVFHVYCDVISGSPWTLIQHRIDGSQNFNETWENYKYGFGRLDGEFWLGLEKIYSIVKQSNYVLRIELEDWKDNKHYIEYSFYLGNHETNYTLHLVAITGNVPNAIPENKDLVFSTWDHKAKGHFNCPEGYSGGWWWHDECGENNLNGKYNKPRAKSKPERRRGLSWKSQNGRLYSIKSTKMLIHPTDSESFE
T1 sequence (looked up) 2: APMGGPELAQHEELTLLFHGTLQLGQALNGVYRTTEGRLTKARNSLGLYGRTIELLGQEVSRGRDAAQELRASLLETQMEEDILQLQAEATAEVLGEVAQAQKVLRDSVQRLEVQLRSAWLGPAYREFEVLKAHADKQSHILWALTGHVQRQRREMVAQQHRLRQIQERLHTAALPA
The test is described as follows: cell-based or functional assay.

Test [3] concerns the target T2, ANGPTL3/8 complex present in human serum (human (endogenous in serum)) (UniProt Q6UXH0).
T2 sequence (Q9Y5C1 17-460, looked up): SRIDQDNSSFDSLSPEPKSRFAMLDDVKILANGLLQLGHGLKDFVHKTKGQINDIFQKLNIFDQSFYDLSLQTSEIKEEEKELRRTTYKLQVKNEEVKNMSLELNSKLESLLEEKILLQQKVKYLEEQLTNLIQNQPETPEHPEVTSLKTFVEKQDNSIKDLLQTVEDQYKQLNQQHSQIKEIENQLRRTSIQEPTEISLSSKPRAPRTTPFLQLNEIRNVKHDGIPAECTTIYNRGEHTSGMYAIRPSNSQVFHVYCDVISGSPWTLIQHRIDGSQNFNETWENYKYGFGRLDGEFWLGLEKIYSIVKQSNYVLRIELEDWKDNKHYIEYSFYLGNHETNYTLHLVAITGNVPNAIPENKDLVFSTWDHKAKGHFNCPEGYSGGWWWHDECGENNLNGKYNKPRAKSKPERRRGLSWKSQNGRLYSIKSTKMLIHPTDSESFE
T2 sequence (Q6UXH0 22-198, looked up): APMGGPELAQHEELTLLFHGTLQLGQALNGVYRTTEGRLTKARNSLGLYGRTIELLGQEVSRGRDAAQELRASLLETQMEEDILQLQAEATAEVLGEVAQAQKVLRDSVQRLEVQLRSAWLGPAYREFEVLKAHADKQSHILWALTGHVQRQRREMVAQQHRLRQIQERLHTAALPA
The test is described as follows: affinity purification with mass spectrometry; immunoprecipitation with the anti-ANGPTL3/8 antibody from 1 ml pooled human serum (three pools); on-bead Trypsin/Lys-C digest; LC-MRM with 0.25 pmole stable isotope-labeled peptides, two peptides a protein.

Test [4] addresses T1, ANGPTL3/8 complex containing a FLAG-tag …. In words: BLI; Octet RED96e; FLAG-tagged ANGPTL3/8 immobilised by anti-FLAG antibody on streptavidin biosensors; 6.25-100 nM HSA-ApoA5 in solution; background reference subtraction; global fit, 1:1 binding model. As to conditions: both partners purified.

In the case of “ANGPTL3 in human serum (natural protein)”, in test [1], the stoichiometry N is 2.8 and 2.7.

B1: HSA-ApoA5 (HIS tag-mature HSA-PreScission cleavage site-mature human ApoA5, residues 24-366) (natural protein, UniProt Q6Q788 24-366, looked up)
chain: RKGFWDYFSQTSGDKGRVEQIHQQKMAREPATLKDSLEQDLNNMNKFLEKLRPLSGSEAPRLPQDPVGMRRQLQEELEEVKARLQPYMAEAHELVGWNLEGLRQQLKPYTMDLMEQVALRVQELQEQLRVVGEDTKAQLLGGVDEAWALLQGLQSRVVHHTGRFKELFHPYAESLVSGIGRHVQELHRSVAPHAPASPARLSRCVQVLSRKLTLKAKALHARIQQNLDQLREELSRAFAGTGTEEGAGPDPQMLSEEVRQRLQAFRQDTYLQIAAFTRAIDQETEEVQQQLAPPPPGHSAFAPEFQQTDSGKVLSKLQARLDDLWEDITHSLHDQGHSHLGDP
notes: mature human ApoA5, residues 24-366 of NP_443200.2; Secreted by a mouse IgG kappa signal peptide; source: HEK293, transient transfection, purified from culture media (Ni-NTA, Superdex 200); not shown: His tag, N-terminal, kept; mature human serum albumin (HSA), N-terminal, kept
With B1, in test [2], the “EC50 of HSA-ApoA5 to block the inhibition of LPL activity by 0.3 nM ANGPTL3/8 (human LPL-stable expression cells, EnzChek substrate)” value was 21 nM. Also, the protein ratio ApoA5/ANGPTL8 in the immunoprecipitate (ApoA5 per ANGPTL3/8 complex) in test [3] is 0.5 and 0.53. Also, in test [4], the Kd stood at 0.52 nM, the koff was 0.000135 s⁻¹ and the kon was 260000 M⁻¹ s⁻¹.

The stoichiometry N is a count of units in the complex or per binding partner. For orientation: Kd means a measure of binding affinity in units of concentration. The koff is the first-order rate constant of dissociation. By kon is commonly meant a measure of how fast the partners come together.
